Measured values from the supplement of paper PMC7877785.
± gives the uncertainty stated by the source.

Test: self-splicing fitness, log relative to wild type (ln ratio); higher = more splicing; Tetrahymena group I intron in knt gene, E. coli kanamycin selection, DiMSum; sequences stand for … in CUCUCU…GGAGGGAAAAGUUAUCAGGCAUGCACCUGGUAGCUAGUCUUUAAACCAAUAGAUUGCAUCGGUUUAAAAGGCAAGACCGUCAAAUUGCGGGAAAGGGGUCAACAGCCGUUCAGUACCAAGUCUCAGGGGAAACUUUGAGAUGGCCUUGCAAAGGGUAUGGUAAUAAGCUGACGGACAUGGUCCUAACCACGCAGCCAAGUCCUAAGUCAACAGAUCUUCUGUUGAUAUGGAUGCAGUUCACAGACUAAAUGUCGGUCGGGGAAGAUGUAUUCUUCUCAUAAGAUAUAGUCGGACCUCUCCUUAAUGGGAGCUAGCGGAUGAAGUGAUGCAACACUGGAGCCGCUGGGAACUAAUUUGUAUGCGAAAGUAUAUUGAUUAGUUUUGGAGUACUCGUGGUCG
How it was run: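 A randomised library covering all eight P1ex-region intron nucleotides was built with the intron in the knt kanamycin-resistance gene on pET-22b(+) and held in E. coli BL21(DE3). Cells were grown overnight at 37°C or 30°C on LB agar, with or without 25 μg/mL kanamycin, plus 100 μg/mL carbenicillin, 50 μM IPTG and 0.2% rhamnose, and pooled colonies were amplicon-sequenced on an Illumina HiSeq 2500. DiMSum fitness is the error-weighted combination of wild-type-normalised replicate fold changes, kanamycin versus none.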

Sequence	self-splicing fitness (ln) (30 °C)	self-splicing fitness (ln) (37 °C)
AAAAAGCAAUAUUACGAAAG	-2.31 ± 0.098	-1.03 ± 0.12
AAAAAGCAAUAUUACGAUCA	-0.00996 ± 0.084	-0.0134 ± 0.094
AAAAAGCAAUAUUACGCCUG	-0.823 ± 0.09	-0.000429 ± 0.12
AAAAAGCAAUAUUACGCGAG	-0.943 ± 0.085	-1.06 ± 0.11
AAAAAGCAAUAUUACGCGGG	-2.76 ± 0.16	-1.93 ± 0.15
AAAAAGCAAUAUUACGCGUC	-2.31 ± 0.16	-1.72 ± 0.16
AAAAAGCAAUAUUACGCUAA	-2.36 ± 0.15	-1.35 ± 0.13
AAAAAGCAAUAUUACGCUCG	-0.161 ± 0.11	0.0542 ± 0.14
AAAAAGCAAUAUUACGCUUG	-1.69 ± 0.087	-0.744 ± 0.1
AAAAAGCAAUAUUACGGACA	-0.0577 ± 0.11	-0.0474 ± 0.12
AAAAAGCAAUAUUACGGAGA	-3.49 ± 0.19	-3.11 ± 0.18
AAAAAGCAAUAUUACGGGCA	-0.543 ± 0.081	-0.103 ± 0.088
AAAAAGCAAUAUUACGGGGA	-1.74 ± 0.13	-1.8 ± 0.13
AAAAAGCAAUAUUACGUCAA	-1.8 ± 0.08	-0.836 ± 0.073
AAAAAGCAAUAUUACGUGAA	-1.24 ± 0.078	-0.618 ± 0.11
AAAAAGCAAUAUUACGUUCC	-1.3 ± 0.098	-0.521 ± 0.14
AAAAAGCAAUAUUACGUUGA	-2.63 ± 0.11	-1.48 ± 0.12
AAACAGCAAUAUUACGAACC	-2.56 ± 0.18	-0.124 ± 0.17
AAACAGCAAUAUUACGAAGC	-3.98 ± 0.2	-2.75 ± 0.18
AAACAGCAAUAUUACGAAGG	-3.85 ± 0.13	-2.2 ± 0.15
AAACAGCAAUAUUACGACCG	-1.6 ± 0.14	0.0387 ± 0.18
AAACAGCAAUAUUACGAGAG	-2.76 ± 0.18	-2.91 ± 0.16
AAACAGCAAUAUUACGAGCC	-2.55 ± 0.2	-1.75 ± 0.3
AAACAGCAAUAUUACGAGCU	-1.25 ± 0.068	-0.704 ± 0.086
AAACAGCAAUAUUACGAGGU	-4.6 ± 0.26	-2.53 ± 0.15
AAACAGCAAUAUUACGAGUU	-1.94 ± 0.068	-0.482 ± 0.075

Sequence	self-splicing fitness (ln) (30 °C)	self-splicing fitness (ln) (37 °C)
AAACAGCAAUAUUACGAUCC	-1.8 ± 0.088	-0.41 ± 0.11
AAACAGCAAUAUUACGCAUC	-2.82 ± 0.13	-2.07 ± 0.11
AAACAGCAAUAUUACGCCGG	-2.36 ± 0.12	-1.67 ± 0.12
AAACAGCAAUAUUACGCCUU	-1.66 ± 0.093	-0.238 ± 0.1
AAACAGCAAUAUUACGCGCU	-1.03 ± 0.072	-0.289 ± 0.087
AAACAGCAAUAUUACGCGGU	-3.32 ± 0.23	-2.18 ± 0.17
AAACAGCAAUAUUACGGAAU	-3.81 ± 0.16	-2.4 ± 0.14
AAACAGCAAUAUUACGGAUA	-2.99 ± 0.15	-1.92 ± 0.14
AAACAGCAAUAUUACGGCGG	-2.4 ± 0.088	-1.35 ± 0.092
AAACAGCAAUAUUACGGGCA	-1.86 ± 0.1	-1.24 ± 0.1
AAACAGCAAUAUUACGGGCG	-2.12 ± 0.09	-1.41 ± 0.12
AAACAGCAAUAUUACGGGGG	-3.28 ± 0.22	-2.52 ± 0.19
AAACAGCAAUAUUACGGUUC	-2.65 ± 0.078	-2.6 ± 0.12
AAACAGCAAUAUUACGUAAG	-1.23 ± 0.044	-0.526 ± 0.065
AAACAGCAAUAUUACGUAGA	-2.31 ± 0.1	-0.368 ± 0.092
AAACAGCAAUAUUACGUGAU	-2.18 ± 0.053	-1.13 ± 0.072
AAACAGCAAUAUUACGUGCA	-1.19 ± 0.068	-0.303 ± 0.074
AAACAGCAAUAUUACGUUAC	-3.19 ± 0.16	-2.56 ± 0.26
AAACAGCAAUAUUACGUUCG	-1.23 ± 0.051	-0.286 ± 0.068
AAAGAGCAAUAUUACGAAGA	-4.23 ± 0.46	-1.64 ± 0.21
AAAGAGCAAUAUUACGAAGC	-1.67 ± 0.21	-2.04 ± 0.47
AAAGAGCAAUAUUACGACAU	-1.897 ± 0.015	-1.26 ± 0.034
AAAGAGCAAUAUUACGACGA	-2.27 ± 0.23	-2.57 ± 0.25
AAAGAGCAAUAUUACGAGCC	-2.96 ± 0.35	
AAAGAGCAAUAUUACGAUUC	-2.3 ± 0.14	-1.61 ± 0.14
AAAGAGCAAUAUUACGAUUG	-4.1 ± 0.24	-2.29 ± 0.21

Sequence	self-splicing fitness (ln) (30 °C)	self-splicing fitness (ln) (37 °C)
AAAGAGCAAUAUUACGCAUC	-3.52 ± 0.35	-2.24 ± 0.35
AAAGAGCAAUAUUACGCGGC		-3.08 ± 0.4
AAAGAGCAAUAUUACGCGGU	-3.49 ± 0.18	-1.49 ± 0.16
AAAGAGCAAUAUUACGCGUA	-1.96 ± 0.18	-1.61 ± 0.16
AAAGAGCAAUAUUACGCUAA		-1.52 ± 0.28
AAAGAGCAAUAUUACGCUGC	-3.15 ± 0.14	-2.84 ± 0.21
AAAGAGCAAUAUUACGGAUG	-4.57 ± 0.42	-2.06 ± 0.23
AAAGAGCAAUAUUACGGCCA	-3.01 ± 0.31	-2.5 ± 0.29
AAAGAGCAAUAUUACGGCUC	-2.64 ± 0.21	-1.67 ± 0.21
AAAGAGCAAUAUUACGGGCG	-2.3 ± 0.14	-3.1 ± 0.47
AAAGAGCAAUAUUACGGUUG	-3.84 ± 0.27	-2.14 ± 0.25
AAAGAGCAAUAUUACGUGAU	-2.95 ± 0.1	-1.81 ± 0.12
AAAGAGCAAUAUUACGUUGA	-2.75 ± 0.21	-2.28 ± 0.26
AAAUAGCAAUAUUACGACUU	0.559 ± 0.099	0.387 ± 0.13
AAAUAGCAAUAUUACGAGAA		-0.893 ± 0.23
AAAUAGCAAUAUUACGAUUC	-0.544 ± 0.066	-0.733 ± 0.1
AAAUAGCAAUAUUACGCCGG	-1.6 ± 0.13	-0.713 ± 0.15
AAAUAGCAAUAUUACGCCUU	-0.206 ± 0.073	0.557 ± 0.1
AAAUAGCAAUAUUACGCGUC	-2.19 ± 0.16	-0.755 ± 0.19
AAAUAGCAAUAUUACGCUAA	-2.19 ± 0.21	-1.52 ± 0.2
AAAUAGCAAUAUUACGCUCC	-1.48 ± 0.31	0.174 ± 0.42
AAAUAGCAAUAUUACGCUCU	-0.111 ± 0.075	-0.0401 ± 0.091
AAAUAGCAAUAUUACGGACG	-0.725 ± 0.069	-0.343 ± 0.096
AAAUAGCAAUAUUACGGACU	0.0218 ± 0.068	0.206 ± 0.091
